# B1: Suppressor of kinetochore protein 1 (Schizosaccharomyces pombe (strain ATCC 38366 / 972)), Q9Y709 (parent)
# chain: MSKIKLISSDNEEFVVDQLIAERSMLIKNMLEDVGEINVPIPLPNVSSNVLRKVLEWCEHHKNDLYSGTEEESDIRLKKSTDIDEWDRKFMAVDQEMLFEIVLASNYLDIKPLLDTGCKTVANMIRGKSPEDIRKTFNIPNDFTPEEEEQIRKENEWAEDR
# partner: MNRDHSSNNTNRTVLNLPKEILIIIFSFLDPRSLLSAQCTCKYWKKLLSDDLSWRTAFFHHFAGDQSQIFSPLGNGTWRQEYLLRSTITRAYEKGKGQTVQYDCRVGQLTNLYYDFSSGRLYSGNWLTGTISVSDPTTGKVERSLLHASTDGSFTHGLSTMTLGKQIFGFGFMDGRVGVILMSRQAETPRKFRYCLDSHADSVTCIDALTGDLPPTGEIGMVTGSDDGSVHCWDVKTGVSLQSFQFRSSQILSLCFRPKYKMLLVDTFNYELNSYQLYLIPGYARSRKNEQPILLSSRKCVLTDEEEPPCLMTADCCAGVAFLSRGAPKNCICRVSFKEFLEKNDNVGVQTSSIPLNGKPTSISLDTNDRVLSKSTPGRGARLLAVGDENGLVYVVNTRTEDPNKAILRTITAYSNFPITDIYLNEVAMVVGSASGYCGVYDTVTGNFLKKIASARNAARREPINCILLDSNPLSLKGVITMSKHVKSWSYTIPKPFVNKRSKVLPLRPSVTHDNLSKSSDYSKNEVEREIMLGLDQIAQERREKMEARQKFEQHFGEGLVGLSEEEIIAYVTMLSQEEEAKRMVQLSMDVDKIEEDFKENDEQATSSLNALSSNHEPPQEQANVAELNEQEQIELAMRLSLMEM
# B2: Suppressor of kinetochore protein 1 (Schizosaccharomyces pombe (strain ATCC 38366 / 972)), Q9Y709 (parent)
# chain: B1 chain
# partner: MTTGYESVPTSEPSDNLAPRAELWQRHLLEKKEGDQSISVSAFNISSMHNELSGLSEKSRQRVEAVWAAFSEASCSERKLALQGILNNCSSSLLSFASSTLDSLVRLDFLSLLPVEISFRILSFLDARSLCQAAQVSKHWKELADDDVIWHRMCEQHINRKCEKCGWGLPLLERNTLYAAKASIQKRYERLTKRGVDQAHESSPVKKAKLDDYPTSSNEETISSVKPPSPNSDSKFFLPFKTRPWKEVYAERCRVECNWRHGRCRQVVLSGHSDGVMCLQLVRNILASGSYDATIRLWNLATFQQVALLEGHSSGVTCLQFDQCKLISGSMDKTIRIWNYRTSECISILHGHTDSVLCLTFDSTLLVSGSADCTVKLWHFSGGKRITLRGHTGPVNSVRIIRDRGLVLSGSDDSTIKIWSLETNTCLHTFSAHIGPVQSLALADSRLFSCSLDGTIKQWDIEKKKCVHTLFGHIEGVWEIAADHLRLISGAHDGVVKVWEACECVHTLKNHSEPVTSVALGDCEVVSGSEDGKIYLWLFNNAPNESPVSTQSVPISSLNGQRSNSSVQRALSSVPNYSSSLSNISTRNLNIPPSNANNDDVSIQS
# B3: Suppressor of kinetochore protein 1 (Schizosaccharomyces pombe (strain ATCC 38366 / 972)), Q9Y709 (parent)
# chain: B1 chain
# partner: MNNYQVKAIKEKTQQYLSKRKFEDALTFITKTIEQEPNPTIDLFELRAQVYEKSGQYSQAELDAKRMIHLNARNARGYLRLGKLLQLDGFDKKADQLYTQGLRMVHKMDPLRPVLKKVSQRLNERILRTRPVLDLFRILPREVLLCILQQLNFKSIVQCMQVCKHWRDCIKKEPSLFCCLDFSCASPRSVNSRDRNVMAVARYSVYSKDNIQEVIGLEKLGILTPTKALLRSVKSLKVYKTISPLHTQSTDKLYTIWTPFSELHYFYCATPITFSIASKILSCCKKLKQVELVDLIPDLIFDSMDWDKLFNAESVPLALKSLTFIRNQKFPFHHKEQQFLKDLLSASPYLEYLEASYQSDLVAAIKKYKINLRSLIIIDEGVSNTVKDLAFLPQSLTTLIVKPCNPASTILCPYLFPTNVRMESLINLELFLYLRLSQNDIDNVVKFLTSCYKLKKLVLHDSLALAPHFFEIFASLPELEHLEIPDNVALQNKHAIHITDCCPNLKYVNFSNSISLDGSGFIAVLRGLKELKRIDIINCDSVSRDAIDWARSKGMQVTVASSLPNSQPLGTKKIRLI
# Variants of: B1
# Conditions: with pof10_schpo pof10, Q9P7W4
row,Variant,effect of a mutation on the interaction
1,I110T,decreasing interaction

# Variants of: B2
# Conditions: with pof1_schpo pof1, P87053
row,Variant,effect of a mutation on the interaction
1,I110T,decreasing interaction

# Variants of: B3
# Conditions: with pof3_schpo pof3, O74991
row,Variant,effect of a mutation on the interaction
1,I110T,decreasing interaction
